This assay concerns the target extracellular fragment of human macrophage galactose receptor (MGL) isoform 3 (human). In words: cross-linking.

This is an account of results in publication PMC3671775.

The stoichiometry N is the number of molecules, sites or subunits per partner or assembly.

As for “extracellular fragment of human macrophage galactose receptor (MGL) isoform 3 (domain or fragment)”, the stoichiometry N was determined as 3.
